In US20180355050A1 (Ablynx, published 2018):

Tests used:
[1] = target: T1, human CD40L expressed on CHO cells (human, UniProt P29965 1-261); assay: cell-based or functional assay
T1 sequence: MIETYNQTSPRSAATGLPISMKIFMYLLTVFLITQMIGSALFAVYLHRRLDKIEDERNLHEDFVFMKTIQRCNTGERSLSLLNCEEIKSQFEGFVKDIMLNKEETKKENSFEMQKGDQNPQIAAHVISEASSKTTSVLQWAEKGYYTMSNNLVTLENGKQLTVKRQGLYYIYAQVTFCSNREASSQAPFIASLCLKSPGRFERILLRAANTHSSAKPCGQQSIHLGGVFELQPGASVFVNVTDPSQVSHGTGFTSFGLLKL

[2] = target: T1, human CD40L expressed on CHO cells; assay: cell-based or functional assay; remark: listed apart in the source
[3] = target: T2, rat CD40L on transiently transfected HEK cells (rat, UniProt Q9Z2V2 1-260); assay: FACS on HEK cells transiently transfected with rat CD40L
T2 construct: whole, on cells
T2 sequence (looked up): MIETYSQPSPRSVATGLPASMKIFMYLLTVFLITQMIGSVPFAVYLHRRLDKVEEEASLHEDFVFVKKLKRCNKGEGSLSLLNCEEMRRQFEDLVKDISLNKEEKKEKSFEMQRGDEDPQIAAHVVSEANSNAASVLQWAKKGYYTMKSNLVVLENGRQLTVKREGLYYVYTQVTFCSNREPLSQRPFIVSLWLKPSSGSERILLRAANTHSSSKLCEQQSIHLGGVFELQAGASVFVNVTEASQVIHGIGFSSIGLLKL
Experimental: Cross-reactivity to rat CD40L (UniProt accession numbers: Q9Z2V2 and Q9R254 (secondary)) was tested in FACS. Purified Nanobodies were analyzed on FACS for binding to rat CD40L. 2×10⁵ cells (transiently transfected rat CD40L HEK cells) were incubated with the purified Nanobodies in FACS buffer for 30 minutes at 4° C. Cells were washed 3×, re-suspended and incubated for 30 minutes at 4° C. Cells were washed again 3× and dead cells were stained with TOPRO3 (Molecular probes, T3605). Samples were analyzed on a FACSarray™ (BD Biosciences).

recombinant human CD40L [4] = target: T3, recombinant human CD40L (human, UniProt P29965 108-261, limits assumed); assay: FACS ligand competition, biotinylated human CD40L on cyno CD40 HEK cells
T3 construct: Bought soluble recombinant protein (R&D, HEK, 6420-CL/CF); also called hCD40L; human CD40L (HEK, R&D)
T3 sequence: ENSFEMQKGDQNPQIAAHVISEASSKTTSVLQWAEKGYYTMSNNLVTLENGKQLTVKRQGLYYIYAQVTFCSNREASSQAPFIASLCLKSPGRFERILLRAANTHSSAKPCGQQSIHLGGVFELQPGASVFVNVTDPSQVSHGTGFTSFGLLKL
Experimental: Cross-reactivity to cynomolgus CD40L (UniProt accession number: G7PG38) and rhesus CD40L (UniProt accession number: G7N4M5) was tested in a ligand competition assay. […] 2×10⁵ cells (transiently transfected HEK cells) were incubated with dilution series of the purified Nanobodies in FACS buffer for 30 minutes at 4° C. Cells were then washed 3× and finally resuspended in FACS buffer containing Streptavidin-PE (BD Pharmingen, #554061). This mixture was incubated for 30 minutes at 4° C. Cells were further handled as set out above.

recombinant human CD40L [5] = target: T3, recombinant human CD40L; assay: FACS ligand competition, biotinylated human CD40L on human CD40 HEK cells
recombinant human CD40L [6] = target: T3, recombinant human CD40L; assay: FACS ligand competition, biotinylated human CD40L on rhesus CD40 HEK cells
human TNFα = human TNFα (human, UniProt P01375 77-233); assay: competition ELISA on coated human CD40L, fixed Nanobody, dilution series of competitor
Excerpt: (§1) The Basic Local Alignment Search Tool (BLAST) was used to identify the closest related protein in the human protein database. […] A fixed concentration of Nanobody was used together with a dilution series of competitor (TNFα, HVEM-L (TNF14) and hRANKL (TN F11); CD40L was used as positive control), starting at a 100-fold excess. The Nano bodies were detected with anti-FLAG-HRP (Sigma (A8592)).

HVEM-L (TNF14) = HVEM-L (TNF14) (human, UniProt O43557 74-240, limits assumed); assay: as above
Excerpt: as §1

hRANKL (TNF11) = target: T4, hRANKL (TNF11) (human, UniProt O14788 140-317, limits assumed); assay: as above
T4 sequence (looked up): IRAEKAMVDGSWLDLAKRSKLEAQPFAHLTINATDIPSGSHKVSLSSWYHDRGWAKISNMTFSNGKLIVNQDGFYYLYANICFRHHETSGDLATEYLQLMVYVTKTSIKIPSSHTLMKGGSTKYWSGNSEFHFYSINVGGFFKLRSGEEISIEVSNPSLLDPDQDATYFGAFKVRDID
Excerpt: as §1

recombinant mouse CD40L = target: T5, recombinant mouse CD40L (mouse, UniProt P27548 112-260, limits assumed); assay: SPR (ProteOn), immobilised recombinant mouse CD40L 3000-4000 RU; member of the lead panel
T5 construct: also called mouse CD40L (R&D NSO)
T5 sequence (looked up): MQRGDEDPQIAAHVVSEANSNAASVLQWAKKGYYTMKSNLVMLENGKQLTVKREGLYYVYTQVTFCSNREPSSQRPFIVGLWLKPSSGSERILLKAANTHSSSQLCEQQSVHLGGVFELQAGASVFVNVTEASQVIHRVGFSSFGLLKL
Experimental: To assess binding to mouse CD40L (UniProt accession number: P27548), ProteOn GLC Sensor Chips were coated with 3000-4000 RU of recombinant mouse CD40L (R&D NSO) in 10 mM acetate buffer pH5.5. Purified monovalent anti-CD40L Nanobodies in ProteOn running buffer: PBS/Tween (phosphate buffered saline, pH 7.4 with 0.005% Tween 20) were flown over the sensor chips at 100 nM. Processed curves were used for off-rate analysis based on the Langmuir dissociation model.

recombinant human CD40L [7] = target: T3, recombinant human CD40L; assay: FACS ligand competition, biotinylated human CD40L on human CD40 HEK cells; * suboptimal curve fit

human TNFα, sequence (P01375 77-233 limits assumed): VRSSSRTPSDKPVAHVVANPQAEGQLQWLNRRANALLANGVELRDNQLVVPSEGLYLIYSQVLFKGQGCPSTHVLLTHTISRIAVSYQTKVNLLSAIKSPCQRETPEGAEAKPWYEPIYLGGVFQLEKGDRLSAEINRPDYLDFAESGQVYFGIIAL
HVEM-L (TNF14), sequence (O43557 74-240 limits assumed): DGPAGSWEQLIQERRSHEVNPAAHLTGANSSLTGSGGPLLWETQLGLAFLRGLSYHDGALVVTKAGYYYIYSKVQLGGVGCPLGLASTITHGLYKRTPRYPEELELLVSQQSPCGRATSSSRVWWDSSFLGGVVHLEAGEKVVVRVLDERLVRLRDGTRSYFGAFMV

B1: C0100029C10 (VHH)
VHH: EVQLVESGGGLVQPGGSLRLSCAASGFTLDYYALGWFRQAPGKEREGVSCISSTESSDGSTYYADSVKGRFTISRDSAKNTVYLQMNSLKPEDTAVYYCATDQTLFGVCRGIATPDPGFWGQGTLVTVSS
notes: Monovalent Nanobody; tag of the monovalent form not spelled out; also called C01000029C10
With B1 the “IC50 (M), B-cell proliferation assay, +HSA” value [1] was 1.06e-09 M, the “Average IC50 (M), B-cell proliferation assay” value [2] was 1.26e-09 M and the binding result [3] was “no binding”. For the same binder, the “% block (maximum observed effect)” value (recombinant human CD40L [4]) was 81%, the IC50 (recombinant human CD40L [4]) was 8.07 nM and the “% block (maximum observed effect)” value (recombinant human CD40L [5]) was 98%. For the same binder, the “% block (maximum observed effect)” value (recombinant human CD40L [6]) was 87%, the IC50 (recombinant human CD40L [6]) was 12.4 nM and the binding result (human TNFα) was “no binding (tested: competitor from a 100-fold excess)”. B1: no binding (tested: competitor from a 100-fold excess) (HVEM-L (TNF14)); no binding (tested: competitor from a 100-fold excess) (hRANKL (TNF11)); no binding (tested: 100 nM) (recombinant mouse CD40L). It also gave an IC50 (recombinant human CD40L [7]) of 0.142 nM.
